The test concerns the target HigC SecB^TA chaperone of the E. coli NT1F31 HigBAC system (E. coli NT1F31). Description: ITC. On the technique in general: ITC needs no label: the signal is the heat of the interaction.

As a reminder, the Kd is the constant that tells how readily two partners part at equilibrium. Usually stoichiometry N stands for a count of units in the complex or per binding partner. Regarding GELTAESYDDSYLDDEDADWTATGQGQKSAG [gpV^48-78 peptide], the Kd amounted to 0.25 µM, the effective KD with 1.5-fold molar excess of the HigA ChAD peptide was determined as 6.6 µM and the stoichiometry N stood at 0.47.

Consider GELTAESYDDSYLAAAAADWTATGQGQKSAG [gpV^48-78 peptide, poly-alanine substitution of the D61DED64 element], for which the equilibrium dissociation constant (Kd) worked out at 7 µM and the stoichiometry N amounted to 0.5.

For the origin of these results see doi:10.1101/2024.02.24.581848.
